Source: PMC3317979

Key:
[1] = tested on: 933W repressor (cI) (bacteriophage 933W (lambdoid prophage of E. coli O157:H7 EDL933)); experiment: EMSA
[2] = tested on: 933W repressor K46A (bacteriophage 933W (lambdoid prophage of E. coli O157:H7 EDL933)); experiment: EMSA
[3] = tested on: 933W repressor S41A (bacteriophage 933W (lambdoid prophage of E. coli O157:H7 EDL933)); experiment: EMSA
[4] = tested on: 933W repressor (cI) (bacteriophage 933W (lambdoid prophage of E. coli O157:H7 EDL933)); experiment: EMSA (direct and competition)
[5] = tested on: 933W repressor (cI) (bacteriophage 933W (lambdoid prophage of E. coli O157:H7 EDL933)); experiment: competition EMSA
[6] = scale: fold affinity vs S41A on consensus

933W OR1 gave a binding signal (fold higher affinity than consensus) [1] of 10.
With 933W consensus operator the Kd [2] was 6.1 µM, the binding signal ([3]; scale: fold lower affinity than wild-type repressor) was > 10 and the Kd [4] was 0.0048 µM.
With consensus 1A (symmetric C-G to A-T) the binding signal (fold change in affinity vs consensus) [5] was < 2.
With consensus 2A (symmetric, G-C to A-T) the binding signal [3, 6] was 1 and the binding signal (fold lower affinity than consensus) [5] was > 6.
consensus 2T (symmetric, G-C to T-A) was tested, and the binding signal [3, 6] was 1 and the binding signal (fold lower affinity than consensus) [5] was > 6.
consensus 3C (symmetric A-T to C-G) was tested, and the binding signal (fold lower affinity than consensus) [5] was > 6.
consensus 3G (symmetric A-T to G-C) showed a binding signal (fold lower affinity than consensus) [5] of 2.
In the case of consensus 3T (symmetric A-T to T-A), the binding signal (fold higher affinity than consensus) [5] is reported as > 3.
Work on consensus 4 G-5meC in one half-site yielded a binding signal (fold affinity vs consensus (identical)) ([1]; 5-methylcytosine paired with G at position 4) of 1.
In the case of consensus 4 G-C in one half-site, the binding signal (fold lower affinity than consensus) [1] is reported as > 5.
With consensus 5 C-C7G in one half-site the binding signal (fold lower affinity than consensus) ([1]; 7-deazaguanine replaces G at position 5) was > 5.
For consensus 6C (symmetric T-A to C-G), the binding signal (fold higher affinity than consensus) [5] was > 2.5.
In the case of consensus 7'A (C-G to A-T at 7' only), the binding signal (fold higher affinity than consensus) [5] is reported as > 4.
Substance consensus 8G (central A-T to G-C) has a binding signal (fold lower affinity than consensus) [5] of 3.
nonspecific DNA (NS) was tested, and the Kd [2] was 6.1 µM and the Kd [5] was 6.1 µM.
